The values that follow come from the supplement of paper PMC12042874.

± gives the uncertainty stated by the source.

The nature of this data set: amyloid nucleation score (Sup35N fusion, yeast selection) (log enrichment); library NNK3; higher = more nucleation; inactive = no reads after selection. Summed up:
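The nucleation score is the DiMSum log enrichment of output over input reads, centred on the mode score of non-aggregating sequences. Only sequences with 100 or more input reads were scored, using Illumina sequencing of input and output plasmid inserts. Psi-negative yeast expressing Sup35N fused to peptides of 20 random codons were induced 24 hours with 100 μM copper sulfate and grown 7 days at 30°C on medium lacking adenine and uracil.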
For the substance NATIKIFTTIISDYQFGMR, the amyloid nucleation score was 0.152 ± 0.3.

On to MYEVVRVKYMVAQQFNISSE, for which the amyloid nucleation score result was “inactive”.

Regarding ILIEVFLWSCYKYVNC, the amyloid nucleation score result is “inactive”.

Regarding VSFLFDIW, the amyloid nucleation score was 2.24 ± 0.06.

Consider SRRDYRLGSTVKLVVLGKSF, for which the amyloid nucleation score entry was “inactive”.

As for VGFKSCS, the amyloid nucleation score result is “inactive”.

As for KCSRDRWQIVKMFMRMTVAI, the amyloid nucleation score entry is “inactive”.

With SFSFVDLGIHYLMCNDSKIT, the amyloid nucleation score entry was “inactive”.

Take NRWEFVHLLSYWNKSCDLCC: the amyloid nucleation score entry was “inactive”.

As for REGLRYLMVRSIIFSHIFCN, the amyloid nucleation score entry is “inactive”.

For PFLLSMNVGQGFRRV, the amyloid nucleation score entry is “inactive”.

As to MMLLGVRVED, the amyloid nucleation score entry was “inactive”.

For GLKWWLISASSVNFICVRYT, the amyloid nucleation score is 0.104 ± 0.23.

In the case of RYVIIMS, the amyloid nucleation score entry is “inactive”.

With LGCREDFCERIGCVLRVMLE, the amyloid nucleation score result was “inactive”.

On to NFMYTWKRSMFYSNCKH, for which the amyloid nucleation score entry was “inactive”.

As to CRSEYYAF, the amyloid nucleation score entry was “inactive”.

On to RCNPGLVCLGCTFVSRNAYS, for which the amyloid nucleation score was found to be 1.67 ± 0.081.

Consider WSYNITK, for which the amyloid nucleation score result was “inactive”.

With GYRSTCVRRFCECRCRDITA, the amyloid nucleation score result was “inactive”.

Turning to ITTVRAYEALTWNMFWVQCV, the amyloid nucleation score result is “inactive”.

Turning to TGIMIVNYLVSELKPRTIST, the amyloid nucleation score is 0.923 ± 0.11.

Consider LGYDRQGLLTEVYRFSYIIL, for which the amyloid nucleation score result is “inactive”.

Consider YGWFVDFGEYVTESNVGLY, for which the amyloid nucleation score result was “inactive”.

The substance RDYFAYNCMVWMGTIQLYPG yielded an amyloid nucleation score of 1.83 ± 0.056.

Consider EILSPVGTSTCILTSPRTCY, for which the amyloid nucleation score entry is “inactive”.

Take NYTSCNFNVYNSMFFRRYTM: the amyloid nucleation score is 3.2 ± 0.053.

Regarding DGHKCCTG, the amyloid nucleation score result was “inactive”.

Consider ISINMRAGMDG, for which the amyloid nucleation score result is “inactive”.

Consider IVYLRKPCYNW, for which the amyloid nucleation score entry is “inactive”.

For the substance QFKYHYYNLCWSTSVFSFKN, the amyloid nucleation score was 0.837 ± 0.22.

On to AVYLCI, for which the amyloid nucleation score result was “inactive”.

LSESYDRQRFKSTF gave an amyloid nucleation score of 0.694 ± 0.21.

For the substance YSVNSTLLLYVSKYEFIPCV, the amyloid nucleation score was 0.169 ± 0.29.

With IVEHIFDRGVSLEVMMMCYR, the amyloid nucleation score entry was “inactive”.

In the case of PGLCGNGHNDHKTVNIEVYH, the amyloid nucleation score entry was “inactive”.

For FIDMLSYIAYIVLFFGASFV, the amyloid nucleation score entry was “inactive”.

In the case of CRGGNFRPMEGATVNPLFEG, the amyloid nucleation score result was “inactive”.

Take REGFVIIVLTWLMDSQYST: the amyloid nucleation score result is “inactive”.

Regarding SSRTCK, the amyloid nucleation score entry was “inactive”.

ISVTNGIMMVPLNGSNLFPS displayed an amyloid nucleation score of -0.166 ± 0.62.

With IKCMNTLTDCCGMV, the amyloid nucleation score result was “inactive”.

With LMSAFSIRRGYCCVENSASR, the amyloid nucleation score result was “inactive”.

In the case of DVRMLRLMVRELYC, the amyloid nucleation score result is “inactive”.

In the case of GLTWFKSIKVYVECLFRLSN, the amyloid nucleation score result is “inactive”.

Consider NILEYYLLTGLYVAFLYLNR, for which the amyloid nucleation score entry is “inactive”.

Take PVITSYSSIYVSCDIVW: the amyloid nucleation score entry was “inactive”.

In turn, NLTINVVAVQFLFMTTGY showed an amyloid nucleation score of 2.63 ± 0.08.

Turning to SPQFELLDITKPCRT, the amyloid nucleation score entry was “inactive”.

Turning to YFLDLL, the amyloid nucleation score entry is “inactive”.

As to VSLTFVVCRALFLSFTW, the amyloid nucleation score result was “inactive”.

As to LANFHDITWWTWMTSHTGGS, the amyloid nucleation score result is “inactive”.

For the substance LFKYLPCARRVQGRES, the amyloid nucleation score result is “inactive”.

With FIFYFCAVLNHYVCVWVRYL, the amyloid nucleation score entry is “inactive”.

With EGYQVFFNDLVLTLVMRVEV, the amyloid nucleation score entry is “inactive”.

For MRSNMFSRAGNYGQSIKELT, the amyloid nucleation score entry was “inactive”.

As for GCSLTWAVAEALTILVNAYT, the amyloid nucleation score entry was “inactive”.

For CYFTASCLWMNANIDVSLSK, the amyloid nucleation score entry was “inactive”.

With PFTLSSMVSVLPMGFRIGDK, the amyloid nucleation score entry is “inactive”.

On to WWAVTKFTAFYMRVIYKIGR, for which the amyloid nucleation score result is “inactive”.

As to SFMLVFNDSAWLTSAHVYWA, the amyloid nucleation score entry was “inactive”.

Regarding ACAATYLIADAFYELSGIGL, the amyloid nucleation score result was “inactive”.

Turning to EAPFDHPLYLRDLY, the amyloid nucleation score entry was “inactive”.

As to SSRRPWIIGSMST, the amyloid nucleation score entry was “inactive”.

Regarding SLGMMVWVH, the amyloid nucleation score result is “inactive”.

For the substance CFDLVCTLCFLFRLARVVEW, the amyloid nucleation score result was “inactive”.

For TWAWPGRYYQWLQLQLGLNK, the amyloid nucleation score entry is “inactive”.

As for RVTTMLSFVR, the amyloid nucleation score entry is “inactive”.

DYDRIR: the amyloid nucleation score result is “inactive”.

As to IYALDNHGTCGRGHAFYNMV, the amyloid nucleation score entry was “inactive”.

GRHKFRMVVIRAVRVSVLEN: the amyloid nucleation score entry was “inactive”.

As for WTIDTD, the amyloid nucleation score entry was “inactive”.

Regarding ESMTSNYYQMIGVFCEMLVR, the amyloid nucleation score entry was “inactive”.

As for YSTRVVRSTPWSKCSSPDME, the amyloid nucleation score entry was “inactive”.

For the substance GYLQGIYYGFTSCRKTSNQD, the amyloid nucleation score entry is “inactive”.

In the case of MSLPSSSQAYSCRWTWPRPA, the amyloid nucleation score result was “inactive”.

Take QWSCGFMYSFKHLGGDCYNL: the amyloid nucleation score entry is “inactive”.

Turning to IKYKDKGIWFLVSCGHFRLR, the amyloid nucleation score entry is “inactive”.

Regarding YQNVMWLC, the amyloid nucleation score entry is “inactive”.

CNDFNSYVRCYIMSNNFFRY: the amyloid nucleation score entry is “inactive”.

In the case of YDLCERLR, the amyloid nucleation score entry was “inactive”.

Consider SGWTTQVRNKDGWASQLVSE, for which the amyloid nucleation score entry is “inactive”.

With SYLSHNFNGECCTSLLMDNL, the amyloid nucleation score result was “inactive”.

For HTYLLLRDNLLFTVIHTPRN, the amyloid nucleation score was determined as 2.02 ± 0.075.

Take FTYTEMRLGIKFSTWRQ: the amyloid nucleation score is 1.03 ± 0.14.

For the substance WRRCMRYGTASASSSENAHY, the amyloid nucleation score amounted to 0.837 ± 0.18.

Turning to VDVLFC, the amyloid nucleation score entry is “inactive”.

As for LDCHVS, the amyloid nucleation score entry was “inactive”.

In the case of VSGMNSKLFYW, the amyloid nucleation score entry is “inactive”.

For the substance QYELIGSKYVQRFSFQANFS, the amyloid nucleation score was 2.07 ± 0.074.

NVPLKWLTWYNRRAATWVEM: the amyloid nucleation score result was “inactive”.

Consider SFFDYAHRASSVFLGIFPEP, for which the amyloid nucleation score entry was “inactive”.

As to RDLWNGFSLGA, the amyloid nucleation score result was “inactive”.

With GTDSGTRSDNV, the amyloid nucleation score came to 0.328 ± 0.63.

On to ECRHSEWTEYFPSMRFMQAY, for which the amyloid nucleation score entry is “inactive”.

On to CLYLYVRLRYSLVSSSHPFL, for which the amyloid nucleation score result was “inactive”.

The substance WIDFLSRLTIRGSDMYHQEY registered an amyloid nucleation score of 0.37 ± 0.29.

For the substance PLTVI, the amyloid nucleation score result is “inactive”.

With RYFKIPF, the amyloid nucleation score result is “inactive”.

Regarding NNERITWERDIRSRCFPVLV, the amyloid nucleation score entry is “inactive”.

As for VVINHYMNHIAEHTDSLRGG, the amyloid nucleation score is 1.57 ± 0.075.

Substance WISEDTRLLHWLLQCVWIRI came in with an amyloid nucleation score of -0.531 ± 1.4.

Substance YSLNTSFIYIKIRYH gave an amyloid nucleation score of 1.28 ± 0.11.

As for LGGLYLLIFLRSGPRRWSGT, the amyloid nucleation score entry was “inactive”.

GISTGISWQLCGHSGDWYWW: the amyloid nucleation score is -0.658 ± 1.9.

For the substance WIWVVVHFYDLECQLDS, the amyloid nucleation score result was “inactive”.

Consider IGLFNTNVWKCFDCDTPAMF, for which the amyloid nucleation score result was “inactive”.

In the case of VWIIEK, the amyloid nucleation score was 1.99 ± 0.062.

On to SQVFTVALNVPNNR, for which the amyloid nucleation score result was “inactive”.

Turning to SMGVFAKRRKGRWNTYSIKA, the amyloid nucleation score entry is “inactive”.

For VHGKWIDRRYNVISRPLGGG, the amyloid nucleation score result is “inactive”.

For the substance AREYMI, the amyloid nucleation score entry is “inactive”.

The substance TLSAEGVRRLFTCACSYHEG came in with an amyloid nucleation score of 0.532 ± 0.47.

As to TSILPRSGANVKQLLLVLFV, the amyloid nucleation score result was “inactive”.

As to LLQFLMFARNSMIKVVRSMV, the amyloid nucleation score result was “inactive”.

For the substance IRGYFIPCGETLDEDLLFKQ, the amyloid nucleation score entry was “inactive”.

As to IKLARSAYQLSSVNMRVKVI, the amyloid nucleation score result was “inactive”.

For the substance NLAIL, the amyloid nucleation score result was “inactive”.

Regarding PVSLNDIYIIKCANKNYEVI, the amyloid nucleation score entry is “inactive”.

For KKVNDML, the amyloid nucleation score entry is “inactive”.

For the substance DNKLDNRYLGYRFRCTTFHF, the amyloid nucleation score entry is “inactive”.

On to LSTYPDI, for which the amyloid nucleation score result was “inactive”.

Turning to MYGLHLNPALITVYFRGKGL, the amyloid nucleation score is -0.018 ± 0.34.

For NLAFTNVKVWVWSFSLLLYC, the amyloid nucleation score result was “inactive”.

Consider GPTQIGNLMVTHKSQCSWFN, for which the amyloid nucleation score entry is “inactive”.

Take RMLLICNFGIVCQPMTSLQR: the amyloid nucleation score is 2.24 ± 0.063.

For the substance MFVYR, the amyloid nucleation score entry was “inactive”.

Consider GSAECGCFASVYMNSMIKTV, for which the amyloid nucleation score entry was “inactive”.

Regarding FNMWIWS, the amyloid nucleation score entry is “inactive”.

In turn, NWLCDRVRCCWKLNNNDMKL returned an amyloid nucleation score of -0.22 ± 0.88.

For the substance LSYFSLFYADGRHFRCLLDN, the amyloid nucleation score result was “inactive”.
